Kd data for 1 molecule are collected here from paper PMC5748838, “SUMO chain formation relies on the amino-terminal region of SUMO-conjugating enzyme and has dedicated substrates in plants” (Biochemical Journal, 2017).

Experiment in all cases: ITC; SCE at 60 µM in the cell (300 µl loaded), SUMO1-Flag-His at 600 µM in the syringe; 20 injections; 25°C; 20 mM Tris, 5 mM MgCl2, pH 7.4; MicroCal ITC 200
What all share (settings): both partners purified

Assay [1] has as its target T1, Arabidopsis SUMO-conjugating enzyme SCE1, wild type (Arabidopsis, UniProt Q42551 1-160).
T1 construct: SUMO-conjugating enzyme SCE1, Arabidopsis thaliana, AT3G57870; also called SCE WT; WT SCE; source: MonoS ion exchange for ITC
T1 sequence (looked up): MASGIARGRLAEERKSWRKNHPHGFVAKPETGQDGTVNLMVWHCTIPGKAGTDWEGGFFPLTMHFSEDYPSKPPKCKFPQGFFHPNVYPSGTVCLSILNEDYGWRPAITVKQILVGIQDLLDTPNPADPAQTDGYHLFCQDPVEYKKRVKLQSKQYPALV

For a further assay, the target named is T2, SCE K15R (Arabidopsis, UniProt Q42551 1-160, K15R).
T2 construct: SUMO-conjugating enzyme SCE1, Arabidopsis thaliana, AT3G57870, with K15R; also called SCE1 K15R; source: MonoS ion exchange for ITC
T2 sequence (looked up): T1 sequence (looked up) with K15R

The target in another assay is T3, SCE K28R (Arabidopsis, UniProt Q42551 1-160, K28R).
T3 construct: SUMO-conjugating enzyme SCE1, Arabidopsis thaliana, AT3G57870, with K28R; source: MonoS ion exchange for ITC
T3 sequence (looked up): T1 sequence (looked up) with K28R

Where a chain is given by its changes, count along the chain named.

B1: SUMO1-Flag-His (natural protein, Arabidopsis, UniProt P55852 1-93, looked up)
chain: MSANQEEDKKPGDGGAHINLKVKGQDGNEVFFRIKRSTQLKKLMNAYCDRQSVDMNSIAFLFDGRRLRAEQTPDELDMEDGDEIDAMLHQTGG
notes: SUMO1 (small ubiquitin-related modifier 1), Arabidopsis; The SUMO preparations are conjugated in vitro without a protease, so the processed form ending in Gly-Gly is surmised; also called N-terminally tagged SUMO (Flag-His); source: purified (Ni2+ resin, then MonoQ ion exchange for ITC); not shown: Flag, N-terminal, kept; His, N-terminal, kept
As for B1, the Kd in assay [1] stood at 710 ± 230 µM; with SCE K15R, 33 ± 17 µM; in the assay with SCE K28R it was 270 ± 330 µM.

For orientation: Kd means the equilibrium constant for the complex coming apart. A lower Kd goes with higher affinity.
